# In US20230330196:
# Target: programmed death-1 homolog (PD-1H) of mouse mononuclear bone marrow cells (UniProt Q9D659)
# Sequence (Q9D659 33-308): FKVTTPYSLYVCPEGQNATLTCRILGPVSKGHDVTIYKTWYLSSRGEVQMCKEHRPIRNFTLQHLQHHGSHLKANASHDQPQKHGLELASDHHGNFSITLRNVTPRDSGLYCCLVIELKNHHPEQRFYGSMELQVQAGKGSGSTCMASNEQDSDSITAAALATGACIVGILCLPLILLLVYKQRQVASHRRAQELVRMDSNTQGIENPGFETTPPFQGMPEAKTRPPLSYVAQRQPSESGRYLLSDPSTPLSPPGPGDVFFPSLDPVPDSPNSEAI
substance,measurement,value
MMP-13 (added to mouse osteoclast cultures),"OCL fusion and activation, ERK1/2 phosphorylation, NFATc1 and DC-STAMP upregulation in Pd-1h-/- versus WT OCLs","While MMP-13 induced WT OCL fusion and activation, these effects were completely blocked in Pd-1h-/- OCLs in tandem with a loss in MMP-13 induced ERK1/2 phosphorylation, NFATc1 and DC-STAMP upregulation"
